Test results from patent US20190135918A1 (ICHNOS SCIENCES, published 2019).

Assays:
[1] = target: T1, F3 (peptide-Fc fusion derived from the extracellular domain of human CD38) (human, UniProt P0DOX5 223-449 = IgG part); assay: SPR, SAR650984 on the chip, peptide-Fc fusion injected
T1 construct: As F1; by count CD38 residues 69-81; also called F3 construct

[2] = target: T2, F6 (peptide-Fc fusion derived from the extracellular domain of human CD38) (human, UniProt P0DOX5 195-449 = IgG part); assay: SPR
T2 construct: As F1; by count CD38 residues 108-120 (holds M110)

Protein G = target: T3, Protein G (UniProt P06654 228-352); assay: protein G affinity chromatography, eluate (G) and flow-through (G ft) on non-reducing SDS-PAGE
T3 construct: also called protein G chromatography
T3 sequence (P06654 228-352): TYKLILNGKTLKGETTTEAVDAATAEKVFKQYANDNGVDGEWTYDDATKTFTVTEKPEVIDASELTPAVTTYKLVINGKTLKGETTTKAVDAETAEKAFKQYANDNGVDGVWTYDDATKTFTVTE

Protein A = target: T4, Protein A (Staphylococcus aureus, UniProt P38507 37-327); assay: protein A affinity chromatography, eluate (A) and flow-through (A ft) on non-reducing SDS-PAGE
T4 construct: Resin ligands (MabSelect, MabSelect SuRe) are recombinant or engineered forms; also called protein A chromatography

[3] = target: T5, human CD3 epsilon 1-26_Fc fusion protein (human); assay: SPR, CD3 epsilon 1-26 Fc coupled to the chip, antibody injected
T5 construct: also called human CD3 1-26_Fc fusion protein

[4] = target: T6, human CD3 epsilon on cells (human, UniProt P07766 23-207); assay: FACS staining of HPB-ALL cells, scFv-Fc format, graded relative to chimeric OKT3
T6 construct: whole, on cells; On cells it stands in the CD3/TCR complex; also called HPB-ALL cells (human CD3 epsilon positive T cell tumour line); CD3 on human T cells

[5] = target: T7, soluble extracellular region of cynomolgus monkey CD38 antigen fused to a 6-His-tag (cynomolgus monkey, UniProt Q5VAN0 45-301); assay: SPR (summary table, row 'KD cynomolgus monkey CD38 (nM)')
T7 construct: also called cynomolgus CD38

human CD38 on cells = human CD38 on cells (human, UniProt P28907 1-300); assay: cell-based or functional assay

B1: SAR650984 antibody (antibody, human IgG1, kappa, V domains shown)
VH: QVQLVQSGAEVAKPGTSVKLSCKASGYTFTDYWMQWVKQRPGQGLEWIGTIYPGDGDTGYAQKFQGKATLTADKSSKTVYMHLSSLASEDSAVYYCARGDYYGSNSLDYWGQGTSVTVSS
VL: DIVMTQSHLSMSTSLGDPVSITCKASQDVSTVVAWYQQKPGQSPRRLIYSASYRYIGVPDRFTGSGAGTDFTFTISSVQAEDLAVYYCQQHYSPPYTFGGGTKLEIKR
notes: also called humanized SAR650984 antibody
B1: no binding (tested: not printed) [1]; binds [2].

B2: BTB homodimer construct lacking the VH3 based scFv (other)
chain: DKTHTCPPCPAPEAAGGPSVFLFPPKPKDTLMISRTPEVTCVVVDVSHEDPEVKFNWYVDGVEVHNAKTKPREEQYNSTYRVVSVLTVLHQDWLNGKEYKCKVSNKALPAPIEKTISKAKGQPREPEVATFPPSRDELTKNQVTLVCLVTGFYPSDIAVEWESNGQPENNYKTDPPLLESQGSFALSSRLRVDKSRWQQGNVFSCSVMHEALHNHYTQKSLSLSPGK
notes: Human IgG1 Fc region with the BTB CH3 domain carrying D401Q
B2: no binding (Protein G); no binding (Protein A).

B3: BEAT CD38-9G7best-fit/CD3(SP34-Kappa2) antibody (bispecific antibody)
heavy: QVTLKESGPTLVKPTQTLTLTCTFSGLSLSTSGKGVGWIRQPPGKALEWLAHIWWDDDKRYNPALKSRLTITKDTSKNQVVLTMTNMDPVDTATYYCARIELGRSYVMDYWGQGTLVTVSSASTKGPSVFPLAPSSKSTSGGTAALGCLVKDYFPEPVTVSWNSGALTSGVHTFPAVLQSSGLYSLSSVVTVPSSSLGTQTYICNVNHKPSNTKVDKKVEPKSCDKTHTCPPCPAPEAAGGPSVFLFPPKPKDTLMISRTPEVTCVVVDVSHEDPEVQFKWYVDGVEVHNAKTKPREEQYNSTFRVVSVLTVLHQDWLNGKEYKCKVSNKALPAPIEKTISKTKGQPREPAVYTLPPSREEMTKNQVKLVCLVTGFYPSDIAVEWESSGQPENNYYTTPPMLDSDGSFSLVSWLNVDKSRWQQGNIFSCSVMHEALHNRFTQKSLSLSPGK
light: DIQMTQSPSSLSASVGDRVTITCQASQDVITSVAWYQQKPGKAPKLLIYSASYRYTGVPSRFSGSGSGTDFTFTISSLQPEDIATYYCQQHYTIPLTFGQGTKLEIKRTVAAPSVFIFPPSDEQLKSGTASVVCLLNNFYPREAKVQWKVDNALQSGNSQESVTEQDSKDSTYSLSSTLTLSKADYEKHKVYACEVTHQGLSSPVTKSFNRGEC
chain: EVQLVESGGGLVQPGGSLRLSCAASGFTFNTYAMNWVRQAPGKGLEWVARIRSKYNNYATYYADSVKGRFTISRDDSKNTLYLQMNSLRAEDTAVYYCVRHGNFGNSYVSYFAYWGQGTTVTVSSGGGGSGGGGSGGGGSEIVVTQSPATLSVSPGERATLSCRSSTGAVTAANYANWVQEKPGQAFRGLIGGANKRAPGVPARFSGSLSGDEATLTISSLQSEDFAVYYCALFYSNLWVFGQGTKLEIKGGGGTDKTHTCPPCPAPEAAGGPSVFLFPPKPKDTLMISRTPEVTCVVVDVSHEDPEVKFNWYVDGVEVHNAKTKPREEQYNSTYRVVSVLTVLHQDWLNGKEYKCKVSNKALPAPIEKTISKAKGQPREPEVATFPPSRDELTKNQVTLVCLVTGFYPSDIAVEWESNGQPENNYKTDPPLLESQGSFALSSRLRVDKSRWQQGNVFSCSVMHEALHNHYTQKSLSLSPG
notes: Third chain is the anti-CD3 epsilon scFv BEAT heavy chain with humanized SP34 VH5/VL32; also called 9G7xSP34(GV2)
B3 was tested, and the Kd [3] was 18 nM.

B4: VH8-VL4 (scFv)
scFv-Fc chain: EVQLVESGGGLVQPGGSLRLSCAASGYTFTRYTMHWVRQAPGKGLEWIGYINPSRGYTYYADSVKGRFTLSTDKSKNTAYLQMNSLRAEDTAVYYCARYYDDHYCLDYWGQGTLVTVSSGGGGSGGGGSGGGGSGGGASDIQLTQSPSSLSASVGDRVTITCRASSSVSYVAWYQQKPGKAPKRWIYDTSKLYSGVPSRFSGSRSGTDYTLTISSLQPEDFATYYCQQWSSNPPTFGQGTKVEIK
notes: also called humanized OKT3 VH8-VL4 scFv-Fc fusion; hOKT3 VH8-VL4 scFv Fc
B4: binds [4].

B5: VH8-VL8 (scFv)
scFv-Fc chain: EVQLVESGGGLVQPGGSLRLSCAASGYTFTRYTMHWVRQAPGKGLEWIGYINPSRGYTYYADSVKGRFTLSTDKSKNTAYLQMNSLRAEDTAVYYCARYYDDHYCLDYWGQGTLVTVSSGGGGSGGGGSGGGGSGGGASDIQLTQSPSSLSASVGDRVTITCRASSSVSYVAWYQQKPGKAPKRWIYDTSKLYSGVPSRFSGSGSGTDYTLTISSLQPEDFATYYCQQWSSNPPTFGQGTKVEIK
notes: also called humanized OKT3 VH8-VL8 scFv-Fc fusion; hOKT3 VH8-VL8 scFv Fc
B5: binds [4].

B6: chimeric 9G7 antibody (antibody, human IgG1, kappa, V domains shown)
VH: QVTLKESGPGILQPSQTLSLTCSFSGLSLSTSGKGVGWIRQPSGKGLEWLAHIWWDDDKRYNPALKSRLTISKDTSSNQVFLKIASVDTADTATYYCARIELGRSYVMDYWGQGTTVTVSS
VL: DIVMTQSHKFMSTSVGDRVSISCKASQDVITSVAWFQQKPGQSPKLLIYSASYRYTGVPDRFTGSGSGTDFTFTISSVQAEDLAVYYCQQHYTIPLTFGAGTKLELKR
For B6, the Kd [5] was 1 nM.

B7: BEAT CD38-OKT10Mouse/CD3 (bispecific antibody, human IgG1, kappa, L234A L235A)
heavy: QVELVESGGSLKLSCAASGFDFSRSWMNWVRQAPGKGLEWIGEINPDSSTINYTTSLKDKFIISRDNAKNTLYLQMTKVRSEDTALYYCARYGNWFPYWGQGTLVTVSSASTKGPSVFPLAPSSKSTSGGTAALGCLVKDYFPEPVTVSWNSGALTSGVHTFPAVLQSSGLYSLSSVVTVPSSSLGTQTYICNVNHKPSNTKVDKKVEPKSCDKTHTCPPCPAPEAAGGPSVFLFPPKPKDTLMISRTPEVTCVVVDVSHEDPEVKFNWYVDGVEVHNAKTKPREEQYNSTYRVVSVLTVLHQDWLNGKEYKCKVSNKALPAPIEKTISKAKGQPREPAVYTLPPSRDELTKNQVKLVCLVTGFYPSDIAVEWESNGQPENNYYTTPPVLDSDGSFSLVSWLNVDKSRWQQGNVFSCSVMHEALHNHYTQKSLSLSPGK
light: DILMTQSQKIMPTSVGDRVSVTCKASQNVDTNVAWYQQKPGQSPKALIYSASYRYSGVPDRFTGSGSGTDFTLTITNVQSEDLAEYFCQQYDSYPLTFGAGTKLDLKRTVAAPSVFIFPPSDEQLKSGTASVVCLLNNFYPREAKVQWKVDNALQSGNSQESVTEQDSKDSTYSLSSTLTLSKADYEKHKVYACEVTHQGLSSPVTKSFNRGE
chain: EVQLVESGGGLVQPGGSLRLSCAASGYTFTRYTMHWVRQAPGKGLEWIGYINPSRGYTYYADSVKGRFTLSTDKSKNTAYLQMSSLRAEDTAVYYCARYYDDHYCLDYWGQGTLVTVSSGGGGSGGGGSGGGGSDIQLTQSPSSLSASVGDRVTITCRASSSVSYVAWYQQKPGKAPKRWIYDTSKLYSGVPSRFSGSGSGTDYTLTISSLQPEDFATYYCQQWSSNPPTFGQGTKVEIKGGGGTDKTHTCPPCPAPEAAGGPSVFLFPPKPKDTLMISRTPEVTCVVVDVSHEDPEVQFKWYVDGVEVHNAKTKPREEQYNSTFRVVSVLTVLHQDWLNGKEYKCKVSNKALPAPIEKTISKTKGQPREPEVATFPPSREEMTKNQVTLVCLVTGFYPSDIAVEWESSGQPENNYNTDPPLLESDGSFALSSRLRVDKSRWQQGNIFSCSVMHEALHNRFTQKSLSLSPGK
With B7 the “killing assay against Daudi cells, flow cytometry readout, EC50 (pM)” value (human CD38 on cells) was 126 pM.
